Target: T1, soluble human GPC3 (human, UniProt P51654 25-563, limits assumed)
T1 construct: soluble human GPC3 as analyte; also called glypican 3
Assay: SPR (Biacore), soluble human GPC3

T1 sequence (P51654 other isoform, or with tags, fused parts or gaps limits assumed, form in doubt): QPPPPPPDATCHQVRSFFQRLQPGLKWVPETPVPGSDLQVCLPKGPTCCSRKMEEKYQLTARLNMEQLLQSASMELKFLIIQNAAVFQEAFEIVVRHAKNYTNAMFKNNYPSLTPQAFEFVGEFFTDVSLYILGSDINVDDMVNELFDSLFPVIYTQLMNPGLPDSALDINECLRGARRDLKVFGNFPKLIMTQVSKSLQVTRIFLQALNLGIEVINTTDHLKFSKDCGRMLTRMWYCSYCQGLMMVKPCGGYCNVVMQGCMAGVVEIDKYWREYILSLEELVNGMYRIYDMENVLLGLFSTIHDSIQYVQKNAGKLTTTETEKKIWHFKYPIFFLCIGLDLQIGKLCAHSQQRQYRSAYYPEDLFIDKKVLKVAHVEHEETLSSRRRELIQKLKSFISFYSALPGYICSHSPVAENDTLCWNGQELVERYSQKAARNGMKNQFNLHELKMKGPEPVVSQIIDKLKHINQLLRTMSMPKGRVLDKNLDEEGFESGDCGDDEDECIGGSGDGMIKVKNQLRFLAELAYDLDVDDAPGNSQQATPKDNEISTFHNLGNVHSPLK

Row | Binder | Kd [nM]
1 | H0610-G1dh/none-Hi-Kn010G3/L0173-k0 (antibody, human IgG1, kappa, single-arm (one Fab)) heavy: not shown EPKSSDKTHTCPPCPAPELLGGPSVFLFPPKPKDTLMISRTPEVTCVVVDVSHEDPEVKFNWYVDGVEVHNAKTKPREEQYNSTYRVVSVLTVLHQDWLNGKEYKCKVSNKALPAPIEKTISKAKGQPREPQVCTLPPSRDELTKNQVSLWCLVKGFYPSDIAVEWESNGQPENNYKTTPPVLDSDGSFFLYSKLTVDKSRWQQGNVFSCSVMHEALHNRYTQKSLSLSP light: DIVMTQSPLSLPVTPGEPASISCRSSQSLVHSNRNTYLHWYQQKPGQAPRLLIYKVSNRFSGVPDRFSGSGSGTDFTLKISRVEAEDVGVYYCGQGTQFPYTFGQGTKLEIKRTVAAPSVFIFPPSDEQLKSGTASVVCLLNNFYPREAKVQWKVDNALQSGNSQESVTEQDSKDSTYSLSSTLTLSKADYEKHKVYACEVTHQGLSSPVTKSFNRGEC | 2.83
2 | H0610-G1dh/none-Hi-Kn010G3/L0181-k0 (antibody, human IgG1, kappa, single-arm (one Fab)) heavy: not shown EPKSSDKTHTCPPCPAPELLGGPSVFLFPPKPKDTLMISRTPEVTCVVVDVSHEDPEVKFNWYVDGVEVHNAKTKPREEQYNSTYRVVSVLTVLHQDWLNGKEYKCKVSNKALPAPIEKTISKAKGQPREPQVCTLPPSRDELTKNQVSLWCLVKGFYPSDIAVEWESNGQPENNYKTTPPVLDSDGSFFLYSKLTVDKSRWQQGNVFSCSVMHEALHNRYTQKSLSLSP light: DIVMTQSPLSLPVTPGEPASISCRSSQSLVHSNRNTYLHWYQQKPGQAPRLLIYKVSNRFSGVPDRFSGSGSGTDFTLKISRVEAEDVGVYYCGQGTQPPYTFGQGTKLEIKRTVAAPSVFIFPPSDEQLKSGTASVVCLLNNFYPREAKVQWKVDNALQSGNSQESVTEQDSKDSTYSLSSTLTLSKADYEKHKVYACEVTHQGLSSPVTKSFNRGEC | 3.51
3 | H0610-G1dh/none-Hi-Kn010G3/L0202-k0 (antibody, human IgG1, kappa, single-arm (one Fab)) heavy: not shown EPKSSDKTHTCPPCPAPELLGGPSVFLFPPKPKDTLMISRTPEVTCVVVDVSHEDPEVKFNWYVDGVEVHNAKTKPREEQYNSTYRVVSVLTVLHQDWLNGKEYKCKVSNKALPAPIEKTISKAKGQPREPQVCTLPPSRDELTKNQVSLWCLVKGFYPSDIAVEWESNGQPENNYKTTPPVLDSDGSFFLYSKLTVDKSRWQQGNVFSCSVMHEALHNRYTQKSLSLSP light: DIVMTQSPLSLPVTPGEPASISCRSSQSPVHSNRWTYLHWYQQKPGQAPRLLIYKVSNRFSGVPDRFSGSGSGTDFTLKISRVEAEDVGVYYCGQGTQVPYTFGQGTKLEIKRTVAAPSVFIFPPSDEQLKSGTASVVCLLNNFYPREAKVQWKVDNALQSGNSQESVTEQDSKDSTYSLSSTLTLSKADYEKHKVYACEVTHQGLSSPVTKSFNRGEC | 1.22
4 | H0610-G1dh/none-Hi-Kn010G3/L0175-k0 (antibody, human IgG1, kappa, single-arm (one Fab)) heavy: not shown EPKSSDKTHTCPPCPAPELLGGPSVFLFPPKPKDTLMISRTPEVTCVVVDVSHEDPEVKFNWYVDGVEVHNAKTKPREEQYNSTYRVVSVLTVLHQDWLNGKEYKCKVSNKALPAPIEKTISKAKGQPREPQVCTLPPSRDELTKNQVSLWCLVKGFYPSDIAVEWESNGQPENNYKTTPPVLDSDGSFFLYSKLTVDKSRWQQGNVFSCSVMHEALHNRYTQKSLSLSP light: DIVMTQSPLSLPVTPGEPASISCRSSQSLVHSNRNTYLHWYQQKPGQAPRLLIYKVSNRFSGVPDRFSGSGSGTDFTLKISRVEAEDVGVYYCGQGTQHPYTFGQGTKLEIKRTVAAPSVFIFPPSDEQLKSGTASVVCLLNNFYPREAKVQWKVDNALQSGNSQESVTEQDSKDSTYSLSSTLTLSKADYEKHKVYACEVTHQGLSSPVTKSFNRGEC | 3.84
5 | H0610-G1dh/none-Hi-Kn010G3/L0203-k0 (antibody, human IgG1, kappa, single-arm (one Fab)) heavy: not shown EPKSSDKTHTCPPCPAPELLGGPSVFLFPPKPKDTLMISRTPEVTCVVVDVSHEDPEVKFNWYVDGVEVHNAKTKPREEQYNSTYRVVSVLTVLHQDWLNGKEYKCKVSNKALPAPIEKTISKAKGQPREPQVCTLPPSRDELTKNQVSLWCLVKGFYPSDIAVEWESNGQPENNYKTTPPVLDSDGSFFLYSKLTVDKSRWQQGNVFSCSVMHEALHNRYTQKSLSLSP light: DIVMTQSPLSLPVTPGEPASISCRSSQSPVHSNRNTYIHWYQQKPGQAPRLLIYKVSNRFSGVPDRFSGSGSGTDFTLKISRVEAEDVGVYYCGQGTQVPYTFGQGTKLEIKRTVAAPSVFIFPPSDEQLKSGTASVVCLLNNFYPREAKVQWKVDNALQSGNSQESVTEQDSKDSTYSLSSTLTLSKADYEKHKVYACEVTHQGLSSPVTKSFNRGEC | 2.11

Binders with a lower Kd, results first:

Row | Kd [nM] | Binder
6 | 1.13 | H0610-G1dh/none-Hi-Kn010G3/L0201-k0 (antibody, human IgG1, kappa, single-arm (one Fab)) heavy: not shown EPKSSDKTHTCPPCPAPELLGGPSVFLFPPKPKDTLMISRTPEVTCVVVDVSHEDPEVKFNWYVDGVEVHNAKTKPREEQYNSTYRVVSVLTVLHQDWLNGKEYKCKVSNKALPAPIEKTISKAKGQPREPQVCTLPPSRDELTKNQVSLWCLVKGFYPSDIAVEWESNGQPENNYKTTPPVLDSDGSFFLYSKLTVDKSRWQQGNVFSCSVMHEALHNRYTQKSLSLSP light: DIVMTQSPLSLPVTPGEPASISCRSSQPPVHSNRNTYLHWYQQKPGQAPRLLIYKVSNRFSGVPDRFSGSGSGTDFTLKISRVEAEDVGVYYCGQGTQVPYTFGQGTKLEIKRTVAAPSVFIFPPSDEQLKSGTASVVCLLNNFYPREAKVQWKVDNALQSGNSQESVTEQDSKDSTYSLSSTLTLSKADYEKHKVYACEVTHQGLSSPVTKSFNRGEC
7 | 1.08 | H0610-G1dh/none-Hi-Kn010G3/L0186-k0 (antibody, human IgG1, kappa, single-arm (one Fab)) heavy: not shown EPKSSDKTHTCPPCPAPELLGGPSVFLFPPKPKDTLMISRTPEVTCVVVDVSHEDPEVKFNWYVDGVEVHNAKTKPREEQYNSTYRVVSVLTVLHQDWLNGKEYKCKVSNKALPAPIEKTISKAKGQPREPQVCTLPPSRDELTKNQVSLWCLVKGFYPSDIAVEWESNGQPENNYKTTPPVLDSDGSFFLYSKLTVDKSRWQQGNVFSCSVMHEALHNRYTQKSLSLSP light: DIVMTQSPLSLPVTPGEPASISCRSSQSLVHSNRNTYLHWYQQKPGQAPRLLIYKVSNRFSGVPDRFSGSGSGTDFTLKISRVEAEDVGVYYCGQGTQWPYTFGQGTKLEIKRTVAAPSVFIFPPSDEQLKSGTASVVCLLNNFYPREAKVQWKVDNALQSGNSQESVTEQDSKDSTYSLSSTLTLSKADYEKHKVYACEVTHQGLSSPVTKSFNRGEC
8 | 1.04 | H0610-G1dh/none-Hi-Kn010G3/L0200-k0 (antibody, human IgG1, kappa, single-arm (one Fab)) heavy: not shown EPKSSDKTHTCPPCPAPELLGGPSVFLFPPKPKDTLMISRTPEVTCVVVDVSHEDPEVKFNWYVDGVEVHNAKTKPREEQYNSTYRVVSVLTVLHQDWLNGKEYKCKVSNKALPAPIEKTISKAKGQPREPQVCTLPPSRDELTKNQVSLWCLVKGFYPSDIAVEWESNGQPENNYKTTPPVLDSDGSFFLYSKLTVDKSRWQQGNVFSCSVMHEALHNRYTQKSLSLSP light: DIVMTQSPLSLPVTPGEPASISCRPSQSPVHSNRNTYLHWYQQKPGQAPRLLIYKVSNRFSGVPDRFSGSGSGTDFTLKISRVEAEDVGVYYCGQGTQVPYTFGQGTKLEIKRTVAAPSVFIFPPSDEQLKSGTASVVCLLNNFYPREAKVQWKVDNALQSGNSQESVTEQDSKDSTYSLSSTLTLSKADYEKHKVYACEVTHQGLSSPVTKSFNRGEC
9 | 0.699 | H0610-G1dh/none-Hi-Kn010G3/L0168-k0 (antibody, human IgG1, kappa, single-arm (one Fab)) heavy: not shown EPKSSDKTHTCPPCPAPELLGGPSVFLFPPKPKDTLMISRTPEVTCVVVDVSHEDPEVKFNWYVDGVEVHNAKTKPREEQYNSTYRVVSVLTVLHQDWLNGKEYKCKVSNKALPAPIEKTISKAKGQPREPQVCTLPPSRDELTKNQVSLWCLVKGFYPSDIAVEWESNGQPENNYKTTPPVLDSDGSFFLYSKLTVDKSRWQQGNVFSCSVMHEALHNRYTQKSLSLSP light: DIVMTQSPLSLPVTPGEPASISCRSSQSLVHSNRNTYLHWYQQKPGQAPRLLIYKVSNRFSGVPDRFSGSGSGTDFTLKISRVEAEDVGVYYCGQTTQVPYTFGQGTKLEIKRTVAAPSVFIFPPSDEQLKSGTASVVCLLNNFYPREAKVQWKVDNALQSGNSQESVTEQDSKDSTYSLSSTLTLSKADYEKHKVYACEVTHQGLSSPVTKSFNRGEC

Reference: US20210388110A1 (published 2021)
